Experimental data taken from paper PMC5801593 (Frontiers in Molecular Biosciences, 2017).

B1: IscX (natural protein, E. coli, UniProt P0C0L9 1-66, looked up)
chain: MGLKWTDSREIGEALYDAYPDLDPKTVRFTDMHQWICDLEDFDDDPQASNEKILEAILLVWLDEAE
modifications: also: mixed disulfide with β-mercaptoethanol on majority of protein, most likely
notes: IscX (YfhJ) of E. coli; Predicted mass 7859 Da, observed 7935 Da; the predicted mass may include some; also called YfhJ; source: E. coli BL21(DE3), purified (Ni-NTA, TEV cleavage, gel filtration)
B2: biotinylated CyaY (natural protein, E. coli, UniProt P27838 1-106, looked up)
chain: MNDSEFHRLADQLWLTIEERLDDWDGDSDIDCEINGGVLTITFENGSKIIINRQEPLHQVWLATKQGGYHFDLKGDEWICDRSGETFWDLLEQAATQQAGETVSFR
modifications: biotin (site not stated)
notes: CyaY, frataxin ortholog of E. coli; Same protein as m3, biotinylated to hold it on streptavidin biosensors; also called immobilized CyaY; source: E. coli BL21(DE3), purified (Ni-NTA, TEV cleavage, gel filtration), biotinylated

What was measured:
Details in all cases: both partners purified
biotinylated IscS = biological target: T1, biotinylated IscS (E. coli, UniProt P0A6B7 1-404, biotin (site not stated)); assay: BLI; biotinylated IscS immobilised on streptavidin biosensors, IscX 0-50 μM; 20 mM HEPES pH 7.5, 150 mM NaCl, 2 mM TCEP, 0.5 mg/mL BSA, 25°C; apparent Kd, 1:1 model; data not shown
T1 construct: IscS, cysteine desulfurase of E. coli; Same protein as m1, biotinylated to hold it on streptavidin biosensors; also called immobilized IscS; source: E. coli BL21(DE3), purified (Ni-NTA, TEV cleavage, gel filtration), biotinylated

[1] = biological target: T2, IscU-IscS complex (immobilized IscS saturated with IscU) (E. coli, UniProt P0A6B7 1-404; P0ACD4 2-128, biotin (site not stated)); assay: BLI; IscS immobilised and saturated by IscU (10 μM), titrated with IscX 0-60 μM; apparent Kd, 1:1 model
T2 construct: IscS, cysteine desulfurase of E. coli; as the chain of m7; IscU of E. coli; as the chain of m4; also called IscS saturated by IscU; source: formed on the biosensor from purified E. coli-made proteins: immobilized IscS saturated by IscU (10 μM); copies: 2 +

[2] = biological target: T3, cysteine desulfurase IscS (E. coli, UniProt P0A6B7 1-404); assay: native MS; ESI-MS under non-denaturing conditions; IscS 3 μM in 250 mM ammonium acetate pH 8, IscX at 0-16 IscX/IscS molar ratios, 5 min at room temperature; sequential binding model (DynaFit)
T3 construct: IscS, cysteine desulfurase of E. coli; Dimer by native MS (observed 91,035 Da, predicted 91,037 Da); An adduct of about +304 Da is put down to beta-mercaptoethanol hetero-disulfides; also called wild-type IscS; source: E. coli BL21(DE3), purified (Ni-NTA, TEV cleavage, gel filtration)

[3] = biological target: T3, cysteine desulfurase IscS; assay: BLI; competition: biotinylated CyaY immobilised on streptavidin biosensors, exposed to 10 μM IscS at IscX 0-60 μM; 20 mM HEPES pH 7.5, 150 mM NaCl, 2 mM TCEP, 0.5 mg/mL BSA, 25°C; apparent Kd from the response reduction, 1:1 model

Binder | Kd (biotinylated IscS) | Kd [1] | Kd of the first two IscX per IscS dimer (primary site) [2] | Kd of the third and fourth IscX per IscS dimer (secondary site) [2] | stoichiometry N [2] | Kd [3] | binding result [3]
B1 | 8 ± 3 µM | 8 ± 2 µM | 13.7 ± 0.4 µM | 170 ± 10 µM | ≤ 4 IscX per IscS dimer | 6 ± 2 µM | 
B2 |  |  |  |  |  |  | binds
